From the Human Domainome abundance scans (Beltran et al. 2025)
± gives the uncertainty stated by the source.

B1: Homeobox protein cut-like 1, residues 941 to 1008; numbered along this chain, P39880 (parent)
chain: QEVDTIELTRQVKEKLAKNGICQRIFGEKVLGLSQGSVSDMLSRPKPWSKLTQKGREPFIRMQLWLNG

Variants of: B1
Assay: abundance fitness (aPCA) (normalised: wild type 0, dead -1); higher = more abundant; growth selection in yeast, the domain comes from the species named
Conditions: Homo sapiens

| Variant | abundance fitness |
| --- | --- |
| QEVDTIELTRQVKEKLAKNGICQRFFGEKVLGLSQGSVSDMLSRPKPWSKLTQKGREPFIRMQLWLNG | 0.07 ± 0.089 |
| QEVDTIELTRQVKEKLAKNGICQRVFGEKVLGLSQGSVSDMLSRPKPWSKLTQKGREPFIRMQLWLNG | -0.008 ± 0.051 |
| QEVDTIELTRQVKEKLAKNGICQRPFGEKVLGLSQGSVSDMLSRPKPWSKLTQKGREPFIRMQLWLNG | -0.578 ± 0.092 |
| QEVDTIELTRQVKEKLAKNGICQRCFGEKVLGLSQGSVSDMLSRPKPWSKLTQKGREPFIRMQLWLNG | -0.283 ± 0.1 |
| QEVDTIELTRQVKEKLAKNGICQREFGEKVLGLSQGSVSDMLSRPKPWSKLTQKGREPFIRMQLWLNG | 0.125 ± 0.079 |
| QEVDTIELTRQVKEKLAKNGICQRTFGEKVLGLSQGSVSDMLSRPKPWSKLTQKGREPFIRMQLWLNG | 0.083 ± 0.08 |
| QEVDTIELTRQVKEKLAKNGICQRAFGEKVLGLSQGSVSDMLSRPKPWSKLTQKGREPFIRMQLWLNG | -0.002 ± 0.062 |
| QEVDTIELTRQVKEKLAKNGICQRLFGEKVLGLSQGSVSDMLSRPKPWSKLTQKGREPFIRMQLWLNG | -0.09 ± 0.052 |
| QEVDTIELTRQVKEKLAKNGICQRKFGEKVLGLSQGSVSDMLSRPKPWSKLTQKGREPFIRMQLWLNG | -0.022 ± 0.081 |
| QEVDTIELTRQVKEKLAKNGICQRWFGEKVLGLSQGSVSDMLSRPKPWSKLTQKGREPFIRMQLWLNG | 0.021 ± 0.068 |
| QEVDTIELTRQVKEKLAKNGICQRHFGEKVLGLSQGSVSDMLSRPKPWSKLTQKGREPFIRMQLWLNG | 0.073 ± 0.12 |
| QEVDTIELTRQVKEKLAKNGICQRQFGEKVLGLSQGSVSDMLSRPKPWSKLTQKGREPFIRMQLWLNG | -0.073 ± 0.083 |
| QEVDTIELTRQVKEKLAKNGICQRGFGEKVLGLSQGSVSDMLSRPKPWSKLTQKGREPFIRMQLWLNG | -0.225 ± 0.049 |
| QEVDTIELTRQVKEKLAKNGICQRSFGEKVLGLSQGSVSDMLSRPKPWSKLTQKGREPFIRMQLWLNG | -0.03 ± 0.059 |
| QEVDTIELTRQVKEKLAKNGICQRYFGEKVLGLSQGSVSDMLSRPKPWSKLTQKGREPFIRMQLWLNG | 0.014 ± 0.086 |
| QEVDTIELTRQVKEKLAKNGICQRDFGEKVLGLSQGSVSDMLSRPKPWSKLTQKGREPFIRMQLWLNG | 0.156 ± 0.11 |
| QEVDTIELTRQVKEKLAKNGICQYIFGEKVLGLSQGSVSDMLSRPKPWSKLTQKGREPFIRMQLWLNG | -0.101 ± 0.1 |
| QEVDTIELTRQVKEKLAKNGICQWIFGEKVLGLSQGSVSDMLSRPKPWSKLTQKGREPFIRMQLWLNG | -0.144 ± 0.065 |
| QEVDTIELTRQVKEKLAKNGICQRIFAEKVLGLSQGSVSDMLSRPKPWSKLTQKGREPFIRMQLWLNG | 0.1 ± 0.054 |
| QEVDTIELTRQVKEKLAKNGICQRIFCEKVLGLSQGSVSDMLSRPKPWSKLTQKGREPFIRMQLWLNG | -0.019 ± 0.074 |

| Variant | abundance fitness |
| --- | --- |
| QEVDTIELTRQVKEKLAKNGICQRIFDEKVLGLSQGSVSDMLSRPKPWSKLTQKGREPFIRMQLWLNG | -0.545 ± 0.094 |
| QEVDTIELTRQVKEKLAKNGICQRIQGEKVLGLSQGSVSDMLSRPKPWSKLTQKGREPFIRMQLWLNG | -0.721 ± 0.098 |
| QEVDTIELTRQVKEKLAKNGICQRIHGEKVLGLSQGSVSDMLSRPKPWSKLTQKGREPFIRMQLWLNG | -0.927 ± 0.15 |
| QEVDTIELTRQVKEKLAKNGICQRIRGEKVLGLSQGSVSDMLSRPKPWSKLTQKGREPFIRMQLWLNG | -0.526 ± 0.056 |
| QEVDTIELTRQVKEKLAKNGICQRIIGEKVLGLSQGSVSDMLSRPKPWSKLTQKGREPFIRMQLWLNG | -0.45 ± 0.11 |
| QEVDTIELTRQVKEKLAKNGICQRIVGEKVLGLSQGSVSDMLSRPKPWSKLTQKGREPFIRMQLWLNG | -0.648 ± 0.061 |
| QEVDTIELTRQVKEKLAKNGICQRIPGEKVLGLSQGSVSDMLSRPKPWSKLTQKGREPFIRMQLWLNG | -0.574 ± 0.085 |
| QEVDTIELTRQVKEKLAKNGICQRIKGEKVLGLSQGSVSDMLSRPKPWSKLTQKGREPFIRMQLWLNG | -0.45 ± 0.078 |
| QEVDTIELTRQVKEKLAKNGICQRIMGEKVLGLSQGSVSDMLSRPKPWSKLTQKGREPFIRMQLWLNG | -0.459 ± 0.071 |
| QEVDTIELTRQVKEKLAKNGICQRITGEKVLGLSQGSVSDMLSRPKPWSKLTQKGREPFIRMQLWLNG | -0.796 ± 0.1 |
| QEVDTIELTRQVKEKLAKNGICQRIGGEKVLGLSQGSVSDMLSRPKPWSKLTQKGREPFIRMQLWLNG | -0.622 ± 0.078 |
| QEVDTIELTRQVKEKLAKNGICQRIAGEKVLGLSQGSVSDMLSRPKPWSKLTQKGREPFIRMQLWLNG | -0.649 ± 0.075 |
| QEVDTIELTRQVKEKLAKNGICQRIWGEKVLGLSQGSVSDMLSRPKPWSKLTQKGREPFIRMQLWLNG | 0.03 ± 0.067 |
| QEVDTIELTRQVKEKLAKNGICQRIDGEKVLGLSQGSVSDMLSRPKPWSKLTQKGREPFIRMQLWLNG | -1.05 ± 0.22 |
| QEVDTIELTRQVKEKLAKNGICQRILGEKVLGLSQGSVSDMLSRPKPWSKLTQKGREPFIRMQLWLNG | -0.312 ± 0.051 |
| QEVDTIELTRQVKEKLAKNGICQRINGEKVLGLSQGSVSDMLSRPKPWSKLTQKGREPFIRMQLWLNG | -0.991 ± 0.19 |
| QEVDTIELTRQVKEKLAKNGICQRISGEKVLGLSQGSVSDMLSRPKPWSKLTQKGREPFIRMQLWLNG | -0.704 ± 0.071 |
| QEVDTIELTRQVKEKLAKNGICQRIYGEKVLGLSQGSVSDMLSRPKPWSKLTQKGREPFIRMQLWLNG | -0.741 ± 0.11 |
| QEVDTIELTRQVKEKLAKNGICQRICGEKVLGLSQGSVSDMLSRPKPWSKLTQKGREPFIRMQLWLNG | -0.709 ± 0.099 |
| QEVDTIELTRQVKEKLAKNGICQRIEGEKVLGLSQGSVSDMLSRPKPWSKLTQKGREPFIRMQLWLNG | -0.883 ± 0.093 |
